Data on 15 sequences can be found in a protein production outcome set (Wang et al. 2014).

The data set is described as follows: label from the status in PepcDB records.
As to “MFEAARFGDEISHTSALGGFLIGAALGIALVATVAIATFTCGFGVALLAGLAAGIGGSLLTAAGEAIGSMFSSPSGTITTASPNVFINSRKAARVEKSIGACDKHPGPVQIAEGSTNVFINSVAAARKGDKLTCGATISGGSDNVIIGGGTYRYLPVDDEVPEWLRTTVDVLMAIAGAAGGIAQLIKAGTQAGMKAVMPCALKFTAGFVAGEVASRYVVEPVARKAIGGLVGNPVDLTTGRKLIPDEIDFSLPGLMPIEWSRFYASDLTVDSVLGRGWVLPWEQSLRRQGAFIYLTDNQGREVPFVTLQPGQRIYNPHEQVYLVCTEGGHYILQTLDNLFFYFGEVPDTNTEVPLQRIENVLGHFLHFTRTPDGTLTDISATGGTRVHLHYDNPLGRLTDIKRVVNNEAVETLTQYRYDEHGQLSAVINRNGDTVRSFSYADGLMVTHSNALGLGCHYRWQTLGDKPRVVEHWTSDGEHYHFRYDLDSRTSWATDVLGRELEVQYNADHRVVASRDYGGERYAIELDEHGNMVGLTLPDGNRLQFKYDEFSRLLEETDPLGRKTQYEYHHLTTLVTQVSYPDGSTWRARFDDKGNLLAEFDALGQMTEYLNSDDGLPHTIIDATYKSKYLWWNTLAQVERYQDCSGKSTYYRYDERQHLVAVTDALNQTTTLARKPDGEVLRISHPDGTTESFTYNVYGQVLSHTDGKGQTTRLMRTARGLPSSRQDAKGQRVRYEYDKAMRLTALVNENNATYSFAYDASDRLSEEVRVDNLTRRFSYDVGGHLTRLDEIGYGENAERPERHTLFERDAIGRLIAKLNSDAQQRFTYDDGDRLLSIERQPTGIGKQLGITEEKLEYAYDLLGRLTKEISPDGTLGYEYDPLSNLTTLTLPDGRKVNHLYYGSGHLHQLNLDGQVISDMERDDLHREVYRTQGKLTSCFGYDAMGRKAWQFASTLPADKLSQVHNTGINTSLLVEHAYNPIHRRYQYDPAGELVRTLDKLRGEIKYEYEANGQLRSRDTGSLIGSEEFRYDPAANRLDFNARQFDKVKDNRIKQWRDQEYRYDPWGNLIEKRSGHSKLQHFSYDCENRLVRAETLVNGKLESQGEYRYDSLGRRIAKQAEINGEVEQKRFLWQGLRMLREETPGQSILYLYEPGSYAPLARVDQVEGEGQKVYYFHTDQIGTPLELTDSEGEIVWQATYRSWGTIETLSIKEVDQNLRFQGQYFDAETGLHYNTFRYYYSEVGRYVTQDPIGLDGGLNLYRYGQNPAGWIDPWGWECWSTARKNYWKAEAKAPTRAYSPTNLVRMAEGKAPKMTVEVISRKTDKISIREYALELHHNDIPQRVGGAGVHDSSNLLALTPWEHEAVDQFRHVGSDLIRVIKGVDVW”, the protein production result is “failed”.

For “MEIHYAAKQDKCLVRPVIRDHTGSQSYRSTTSILTDHLRRNHHSHGAIASRDYLSYSWNSQLRRFSSEGDGNNASEDSRFPLNKDKMGKEKSTVGVEHFDSHAQLGVQDQIEWLNNEKRASESRKESPFLNKRERLKNEFLRRIQPWETIQLSWESFPYYVHEHTKDTLVECVSSHIKQKSMTSKYGARLDSSSGRILLQSVPGTELYRERLVRALARDTQVPLLVLDSSVLAPYDFADDYNEESESDDDIAESDQCTSQSEAEEETDGDNDDTSSSETKIEGTDDEERYLEISKEVLKKLGADIEDIEKRMSEQLYGSSEVSEAAAVDQDDKAKRPLKKGSQFVTCALCYLHQMMSV”, the protein production result is “failed”.

In the case of “MSANLKPGSQVNTDQKPEKTKVLILGGTGEMGQWFTRFFKQKGYEVTVWGKGGKTEIASKLGVPFASDLEKAVPESDILIVSVPINVTEETIAEFAPKMKSGSLLMDFTSIKVKPVEAMKKFAPSDVEILGTHPMFGPTIPTIRGQTVILVPVKGRSEKWFPVIRELFEEGGAHVEITTAAEHDRLVSVVQGLTHFAYITIGTTIDRLDFDIKKSRKFVSPVYAIMLDFVGRILGQNPYLYALIQMENPGVLEVHDAFIRECEELSRLVRAHDEESFVKKMKSAARKYGDTAHALRKSDKLINSRITEYETILNSVGKVCGFSHFYSGKIHVGILGKAGPDEIVLTKMVSKGTSPHIKNKFVKLKLENLRMLSESELWEWRKENLEHSTRDISVLIPEGADPEVILNAINTNKQLAACEISDIYKGVNQGDHKRINRGDYKEFNRIETEKEREEAKRLGVTYRITVFGDCDANSVEADVTSLLCGLGCRIREKNLKQIEKTEPKR”, the protein production entry was “failed”.

Take “KKTEWSREEEEKLLHLAKLMPTQWRTIAPIIGRTAAQCLEHYEFLLDKAAQRD”: the protein production result is “not failed”.

As for “VGQRSDSDHVMAEATTDKRQGHTRGRTGNDRRTQIIKVATELFREKGYYATSLDDIADRIGFTKPAIYYYFKSKEDVLFAIVNSIVDEALERFHAIAAGPGSPGERIHALLVEHTRTILRNLDANTLFYNERGLLSPEREREMRKREREYTEIMQRLYAEGVATGELLDVDPTVATATLLGAAIWTYRWYDPEGRLSADEVVEQITRLLLNGYRRPA”, the protein production result is given as “not failed”.

Turning to “MLGGIEAGGTKFVCAVGREDGTIIDRIEFPTKMPDETIEKVIQYFSQFSLQAIGIGSFGPVDNDKTSQTYGTITATPKAGWRHYPFLQTVKNEMKIPVGFSTDVNAAALGEFLFGEAKGLDSCLYITIGTGIGAGAIVEGRLLQGLSHPEMGHIYIRRHPDDVYQGKCPYHGDCFEGLASGPAIEARWGKKAADLSDIAQVWELEGYYIAQALAQYILILAPKKIILGGGVMQQKQVFSYIYQYVPKIMNSYLDFSELSDDISDYIVPPRLGSNAGIIGTLVLAHQALQAEAASGEVRS”, the protein production result is “not failed”.

On to “MKYNYTVLLSAFTMSVLYSVIYIHSFIIAALITMAFYFLFPYLIFALPLQIMMNKKPKRFSPLYLLYYLAAAFIANAIIFGMLQPSGQSLFQNTAFYLFAVLTALIYWIWDSVLLQKKEA”, for which the protein production result is listed as “failed”.

As for “MIKSTNIQAIGSGIMHQINNVYSLTPLSLPMELTPSCNEFYLKTWSEWEKNGTPGEQRNIAFNRLKICLQNQEAELNLSELDLKTLPDLPPQITTLEIRKNLLTHLPDLPPMLKVIHAQFNQLESLPALPETLEELNAGDNKIKELPFLPENLTHLRVHNNRLHILPLLPPELKLLVVSGNRLDSIPPFPDKLEGLALANNFIEQLPELPFSMNRAVLMNNNLTTLPESVLRLAQNAFVNVAGNPL”, the protein production entry was “failed”.

Take “MTEFALDTSTGITIIVLFGVFWVAFGYWLGRKNRSHEDFALAGRNVGFAFAAATAMATWVTSNTTLVAPQLTYQFGIWGMVGYSFAALGLVLFAPMAKRIKELLPNGYTSGDFVRLRYGNLAWLVFIIISVVYAFGWLISLGMAGGILLESLSGLDYHIGMTTILVICVGYTLFGGMRAVIATDFIQALIIIVGVSFIAYWIIDNVGLESIHSNLTSEHPQLLDMLFPAAVMFLFNNIFFGLGEIFHSNVWWSRALSFKKNVAYKAYLTGGLLWLPIPIVTGFIALAAPQLGIFPPSPDMIGPTVAAAVLGKAGAIIVFIVIFSALASSLDSLLAATSDLVTQDIFHKKLKPKASDKTLMRFNRSCILGLGVVTWLLCLPRVATLGALLNFAGAFVASTIWPIVLGLYHRRLTGTYAACAMGFGTAFGMLSYFVVGFYVAALVSCAVSGLICLVGIFRSSDKFDWDTLNEKEQSNANQ”: the protein production entry is recorded as “failed”.

Turning to “MGPFLMRILALGLVAGAALAQGVQAWLERGERLLSEGAYAEAVAAFEEVLRQDYGQFQAHLGLGVALVRLGRLEEARFAFDQMTRVFPDRYEGHFNLGQVYLRMGEAGKAAEAFAKAAAIAPREEAYLAWSGALLQEGKAREAAAVLERGLSPERSPAYRLALAQALYAAGEREAAVPHLYAALNREPGRAEAWDLLARVLAEVGLADRARREVERGLEAVQDPKGKALLLLRKGTLVEDPEPLWREALALDPDLWQAAYLLGRRRLEAGDLKEGLRWLQEAYAKGQDPEVALALAAAYLKAKDYANAYRYAKEAGPAGAFLQAQAAQGLGRRQEALKLLEGIASPQALALRGSLLLEEGQGEEAVAALQAAYEATRDPQVGVNLGAALVLVKRFGQAELVLREVLAKDPSSAAAWYNLGLALRGLGRQAEADRALRQAAALGSREARALLGR”, the protein production result is on record as “failed”.

As to “QNRGSLSTARSYISMGVGRVYVMKDSPNDIELTMAEGVDVGRYVDYRELAIKIADNRIDVKKNKEIINSRFKLKYKNLSSIYN”, the protein production result is reported as “failed”.

Consider “MLVSEMHGEVEAVKVGTEVQGRVLHWVYLYYYRNLLFDAGCPNTAQEVFEHFKGREIKAVLITHYHEDHIGAVNLFKEITDVYVPEESLEILRNPPDIPKYRKIGWGQPEKIEGVKVAKEVMKFDDVEVRMIKTPGHSFDHVSYLVDDKLFCGDLVINTAQMVCMREENLLKTIESIEKVLKYDFNYAYTGVGVASRDEVVEYLNYLKGLKEKAEMLYAEGKTIDEIVAACFPNPSQKAILMEFVSEKEWARENMVKSLLGLPRE”, for which the protein production result is listed as “failed”.

With “MSWLIHAGEGRQYQVAPPVSWSQSYAEARMTDIQRLDDQTVERIAAGEVVERPASVVKELVENAIDADASRVDVVVEAGGTDGIRVTDDGIGMDREAVKTAVEEHTTSKIRDIADLEGGVGTLGFRGEALHAIGAVSRLTIRTRPRGGDVGTELVLEGGDVTSVSPAGCPEGTTMAVEDLFYNVPARRKYLKQESTEFAHVNTVVASYALANPDVAVSLTHGDRETFSTTGQGDLRETVMSVYGREVAESMISVGAGSEATGSGDEMDSFPDGPLDGVHGLVSHPETNRAGREYLSTYVNGRYVRAGTVRDAVIDAYGTQIAPDRYPFAVLFLDVPAGDVDVNVHPRKMEVRFADDEGVREQVRTAVEDALLREGLLRSTAPRGRSAPEQTEITPESDGATDSGGERAAPNGRDAIDDATTSGQTDTTATENSAEAPAQEPDTAPTARPDGTQTETGNCESSDTAPSIQSADTKPSSETGRTDGTSGESGTGQTGGSVSGGDSDSERPGASATGQTAAERGERKFTGGQEQARLGDDPEATHESLPSMRILGQLADTYVVAETDDGLVLVDQHAADERVNYERLKAKFEGETTTQALANPVELGLTAREAEVFDRRSDALASLGFHTARTGERSVEVRTLPGVIADAAGPDIVRDVLGAFVAGDDEAAATVEAAADELLGDLACYPSVTGNTSLTEGSVRELLAALDDCENPYACPHGRPTVIHIDRQELEDRFERDYPGHGGRRR”, the protein production result was “failed”.

Consider “MRHWLILFLLALPCLAGAVSFNEQVERLPLGQSIDVFEDVRGSADINDITSRAIDSSFRRHDKDVLNAGYSRSVFWLRLDLDYRPVASSDPRTWLLELAYPPLDKLDLYLPDGQGGYRLAQRTGDTLPFASRPIRQNNYLFELGLEPNKPQRVYLRLESQGSIQAPLTLWSPKAYLEEQPERIYVLGIIYGVLLVMLIYNLFIFLSVRDTSYLYYILYIASFGLYQVSVNGAGIEYFWPDSPWWANAATPFLIGSAALFGCQFARSFLHTRDHSVWVDRGLLALMAVGALVMLMALTMSYAVALRLATYLALAFTGLIFAAGILAWLRGMRVARYFIIAWTAFLLGGIVNTLMVLGYLPNMFLTMYASQIGSALEVGLLSLALADRINAMKEERARILQESSRKLEALNQELANSNRLKDEFLATVTHELRTPMSGVIGSLELMQTVPMDVELAEYQRTAAGSARDMMRMVNDILALIELQAGKLYPRREPFSLRGLFDSLRAQYAPRVEEKGLRFALQLDDSLPDTLEGDAGKLAQALGYLVDNAIKFTARGSVTLRVAAGRTHDGVALRVEVIDTGIGFDMAAGSDLYQRFVQADSSLTRGYGGLGIGLALCRKLVELLGGELTHESRPGQGSRFLLRLQLTQPAQGLAPPPRRAGGQAVRRPEECTVLVVEDNAINQLVTRGMLLKLGYRVRTADNGSEALELLARERPDGVLLDCQMPVMDGFATCRAIRALPGCAELPVLALTAHSHSGDRERCLAAGMSDYMAKPVKFEELQTLLHDWLLCQPIVTKSA”, for which the protein production result was “failed”.

With “MAQTEKLTDYVNPFVGTDGYGNVYPGAQIPFGGIQISPDTDSRFYDAASGYKYNHLTLMGFSLTHLSGTGIPDLGDFLFIPGTGEMKLEPGTHEDPDQGYRSRYSHDKEWASPNYYAVELADYGVKAEMTSGVRSGMFRFTYPESDNAFIMIDMNHTLWQSCEWSNLRMINDSTITGYKLVKGWGPERHVYFTLEHHHHHH”, the protein production result was “failed”.
